T1: human CCX CKR with N-terminal Flag epitope, stably expressed on HEK293 cells (human, UniProt Q9NPB9 1-350)
T1 construct: also called HEK293-CCX CKR cells
T1 sequence: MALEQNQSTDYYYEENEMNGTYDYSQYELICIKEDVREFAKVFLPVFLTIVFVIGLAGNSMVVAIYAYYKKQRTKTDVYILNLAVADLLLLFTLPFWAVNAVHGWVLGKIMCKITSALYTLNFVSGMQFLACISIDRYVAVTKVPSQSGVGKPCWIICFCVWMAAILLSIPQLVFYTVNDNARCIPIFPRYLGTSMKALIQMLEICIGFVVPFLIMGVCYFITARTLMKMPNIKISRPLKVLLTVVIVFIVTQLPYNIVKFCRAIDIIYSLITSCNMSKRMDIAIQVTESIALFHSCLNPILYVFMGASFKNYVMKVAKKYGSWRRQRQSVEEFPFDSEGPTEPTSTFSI


Legend:
[1] = target: T1, human CCX CKR with N-terminal Flag …; test: displacement of 125I-ELC (or 125I-TECK) from CCX CKR stable transfectants, cold chemokine at 200 nM
[2] = target: T1, human CCX CKR with N-terminal Flag …; test: radioligand binding competition on CCX CKR stable transfectants
[3] = target: T1, human CCX CKR with N-terminal Flag …; test: radioligand binding competition on CCX CKR stable transfectants (similar experiments, not shown)

Binder | binding result [1] | other results
human SLC (secondary lymphoid-tissue chemokine) (ligand, UniProt O00585 24-134, looked up, also called 6Ckine; soluble SLC) SDGGAQDCCLKYSQRKIPAKVVRSYRKQEPSLGCSIPAILFLPRKRSQAELCADPKELWVQQLMQHLDKTPSPQKPAQGCRKDRGASKTGKKGKGSKGCKRTERSQTPKGP | binds | –
murine ELC (ligand, UniProt O70460 26-108, looked up, also called murine version of ELC) GANDAEDCCLSVTQRPIPGNIVKAFRYLLNEDGCRVPAVVFTTLRGYQLCAPPDQPWVDRIIRRLKKSSAKNKGNSTRRSPVS | – | binding result [2]: binds
mMIP-1 gamma (murine macrophage inflammatory protein-1 gamma) (ligand, UniProt P51670 22-122, looked up, also called mMIP-1γ; CCF18) QITHATETKEVQSSLKAQQGLEIEMFHMGFQDSSDCCLSYNSRIQCSRFIGYFPTSGGCTRPGIIFISKRGFQVCANPSDRRVQRCIERLEQNSQPRTYKQ | binds | –
human TECK (thymus expressed chemokine) (ligand, UniProt O15444 24-150, looked up, also called soluble TECK; cold TECK) QGVFEDCCLAYHYPIGWAVLRRAWTYRIQEVSGSCNLPAAIFYLPKRHRKVCGNPKSREVQRAMKLLDARNKVFAKLHHNTQTFQAGPHAVKKLSSGNSKLSSSKFSNPISSSKRNVSLLISANSGL | binds | –
murine TECK (ligand, UniProt O35903 24-144, looked up, also called murine version of TECK) QGAFEDCCLGYQHRIKWNVLRHARNYHQQEVSGSCNLRAVRFYFRQKVVCGNPEDMNVKRAMRILTARKRLVHWKSASDSQTERKKSNHMKSKVENPNSTSVRSATLGHPRMVMMPRKTNN | binds | –
murine CTACK (ligand, UniProt Q9Z1X0 26-120, looked up, also called mCTACK; CCL27) LPLPSSTSCCTQLYRQPLPSRLLRRIVHMELQEADGDCHLQAVVLHLARRSVCVHPQNRSLARWLERQGKRLQGTVPSLNLVLQKKMYSHPQQQN | – | Kd [3]: ~9 nM
human ELC (EBI1 ligand chemokine) (ligand, UniProt Q99731 22-98, looked up, also called MIP-3beta; MIP3beta) GTNDAEDCCLSVTQKPIPGYIVRNFHYLLIKDGCRVPAVVFTTLRGRQLCAPPDQPWVERIIQRLQRTSAKMKRRSS | – | binding result [2]: binds

From USRE39849 (CHEMOCENTRYX, dated 2007)
